Reference: the supplement of paper PMC12042874
± gives the uncertainty stated by the source.

assay: amyloid nucleation score (Sup35N fusion, yeast selection) (log enrichment); library NNK2; higher = more nucleation; inactive = no reads after selection
Outline: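 Yeast lacking psi expressed peptides of 20 random codons fused to Sup35N, received 100 μM copper sulfate for 24 hours, and were then grown for 7 days at 30°C on medium lacking adenine and uracil. Illumina sequencing of input and output plasmid inserts provided the reads. Nucleation scores are DiMSum log enrichments of output over input, centred on the mode of non-aggregating sequences. Any sequence with under 100 input reads was excluded.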

Point of comparison: YNSRNIEDFFVIDLVNWLRL, amyloid nucleation score -1.24 ± 1.1. Against it:
- PSFILIFNGCKWVPYASKCG — higher, 8.916 ± 0.021
- VIPFISIRLCAAVRVFVPQS — higher, 5.04 ± 0.075
- KRNDCLFGRVALCGMFRLSA — within error, 0.198 ± 0.5
- NLFKDTISSLHNGIETIAPF — within error, -0.82 ± 0.61
- MGRGPESQHFVCCHRRAWL — higher, 1.15 ± 0.3
- SILGMG — within error, -0.555 ± 0.28
- IVCIWNTDVLIGKWTHLSWS — higher, 0.883 ± 0.27
- RSLDVLTTVVMRAFNPTRLR — higher, 0.953 ± 0.36
- TMKHLFRDGRSIRLLTCWVS — within error, -0.931 ± 0.42
- KNFQEHYVFLRARRLKLLSY — within error, -0.095 ± 0.8
- DGVRGLYKRLRMCTTCLCTL — higher, 6.48 ± 0.079
- KSFIGWLYMDTEYHWMYQPW — higher, 0.27 ± 0.28
- VRLFVFSKVKGLIMVNCSWK — within error, -1.35 ± 0.44
- IVAFARVITLMRLLADGSTV — higher, 0.608 ± 0.54
- ACLGHSLAVVRTMTDSRKRL — within error, 0.367 ± 0.74
- VNVYMYNYLLKHITKDRRST — higher, 8.16 ± 0.031
- MMNCNVLMDKSSCFRYIVWG — higher, 3.77 ± 0.051
- HSSCIVVEAFSQGVVHNLFV — within error, -0.567 ± 1.1
- SHLCQLLDDAGLTEQNNSSG — within error, 0.234 ± 0.57
- LRWAYMNTARQACMKAENG — within error, -0.079 ± 0.62
- IQKLRVRHDMISYTSEMSVN — within error, -0.218 ± 0.55
- AFLFSRDCMERWTMYDGLWW — within error, -0.063 ± 0.42
- SYDDGRFGVGCCFIEGYRI — within error, -1.41 ± 1
- SGFTVEESWTLLCRIVSREG — higher, 1.22 ± 0.34
- ISACFKMGNRGYVICAMSRV — within error, -0.306 ± 0.45
- LMVSRFVF — within error, -0.206 ± 0.76
- NREFCFFVSDVKIPYTPCVP — within error, -0.609 ± 0.32
- RRLFYRRRQHNILLAYWVWY — within error, 0.524 ± 0.81
- FQYYDKYLYWFFVNN — within error, -2.12 ± 0.73
- WISTTYASLDNPSHKGIVLM — within error, -0.302 ± 0.48
- TSSVPGLRSWVWVKQDSDRW — higher, 1 ± 0.19
- DFGVWFFFYTHQLSA — within error, -0.113 ± 1.1
- STWVWMSFCVNLLDPHACGS — higher, 7.542 ± 0.03
- YAVLSLKAWCLSG — higher, 4.61 ± 0.054
- LKCPALRSSSPNDLFVP — higher, 0.626 ± 0.65
- WGNVLNLYNR — higher, 4.53 ± 0.081
- RTFAKVLKSSYQRNLPSTDV — higher, 0.267 ± 0.24
- HWMAFVKRTANFDVIDWSAG — within error, -0.278 ± 0.39
- RGWCLDRPQYNVFRAMSRSL — within error, 0.066 ± 1
- RERVFIGNGWTRLSRARGQA — within error, -1.15 ± 0.62
- TYVMPSVVIKNCH — within error, -0.267 ± 0.79
- GGISNVCLSYVRFQEFVFNV — higher, 5.69 ± 0.093
- DCPLFQRLYRQS — within error, -0.211 ± 0.22
- EAYVHGMR — higher, 1.07 ± 0.25
- SVFMFCVSEL — within error, -0.049 ± 0.63
- RCSDRKRRFSYSNWYGHGYG — within error, -0.448 ± 0.48
- RSTERCNYTCVNWVVL — higher, 7.748 ± 0.048
- LQCIGNYSDWGSMVGREQSK — within error, -0.066 ± 1
- ELKVMGYMCPL — higher, 0.801 ± 0.82
- WPYGVGLINGWSTMVSYKVL — within error, 0.325 ± 0.8
- VDVNVHIAGIWLWFYLWRYV — within error, -0.768 ± 1.1
- ASVLTDPGVRSGRLRVCVGQ — within error, -0.121 ± 0.35
- WILGKFTDKFRSSRHRRNRA — higher, 0.787 ± 0.25
- ASDRGI — higher, 0.532 ± 0.18
- WSLQSQGYRILDGYGV — higher, 0.6 ± 0.44
- IFLDHYS — within error, -0.026 ± 0.35
- VMVAYSLLGSRSSILLW — within error, 0.021 ± 0.32
- RNGLILCLGEVVMSSMESVT — within error, -0.646 ± 0.61
- MEPNYGVRGVMYNFVMPRWM — higher, 7.251 ± 0.047
- SVVGFTPQKL — within error, -0.049 ± 0.34
- LANYYTDSVRPSCGY — within error, -0.022 ± 0.55
- NGVPT — within error, -1.43 ± 1.1
- LNIHLFSVTGLCDEC — within error, -0.344 ± 0.76
- GFGNFVINDWSLR — within error, -1.56 ± 1.1
- KVSWFVRIYMCEIRMRIGRS — higher, 1.44 ± 0.33
- FMQICNFIC — higher, 8.012 ± 0.07
- IKFVEPYSFLS — higher, 1.32 ± 0.092
- QFSLLTKYTNVHILGSEEFG — higher, 0.388 ± 0.36
- YRIQKHWCQLS — within error, -0.087 ± 0.76
- EVWYSPDLTLLVYPTPR — higher, 1.46 ± 0.4
- EDSPKFKGGPGIYHSVVLVG — higher, 0.394 ± 0.27
- LNKQRSCFNVMGGWRKIYPS — higher, 0.783 ± 0.13
- AQGILVLLSSD — within error, 0.23 ± 0.47
- GWVKDDWDFTLMRPRFVGRG — within error, -0.143 ± 0.76
- HLWFEDAQFAIAKFKCGGKR — higher, 6.16 ± 0.086
- ELFTLGLEGALEVNELKLKY — higher, 0.782 ± 0.18
- VNVSGSGSVPY — higher, 0.741 ± 0.27
- LLLTLCSDHMLNGNVVGHDW — higher, 4.05 ± 0.049
- TMWYIGKITRPSLRAGSGFT — within error, -1.16 ± 0.48
- KFVYSGGLFTMLRSC — within error, -0.414 ± 0.61
- IIYLIGLTRARHWCRLRYEL — within error, -0.063 ± 0.3
- CTCTDTEDKWVKSGYSRGAH — higher, 2.22 ± 0.079
- AVVGDMGIC — within error, -0.511 ± 0.63
- ISVKFNEEACKFYDLCN — within error, -0.294 ± 1
- NHLMSMFDCSDTQMSSSSIA — higher, 0.308 ± 0.32
- NIVRYAMELCDIN — higher, 4.08 ± 0.1
- VSCYACREFMRLIVISGCLC — higher, 3.69 ± 0.042
- LNNLLS — within error, 0.315 ± 0.46
- ILCYMVGSRIMCVEHSGC — higher, 8.588 ± 0.064
- EKYRGSLMSRLAKMWNCCVT — higher, 1.04 ± 0.27
- FFTVDRDFLYFPDFSKRVVM — within error, -0.569 ± 0.79
- MWLSPRVVVFCRLIFHLLVG — within error, -0.567 ± 1.1
- VANNTGAKSYVFMARNAMCF — within error, -0.602 ± 0.49
- SESYVLYNIFGFSVKLDEHG — within error, -1 ± 1
- YCMSYCRSTCYHQEFHGPAC — higher, 4.34 ± 0.072
- DNDYTWIKFLKCGRADASGT — within error, 0.157 ± 0.5
- HYVSNEHSVRRTHHRKTKLT — higher, 0.753 ± 0.67
- MQIIGWILWGVLQAELHYRS — within error, -1.01 ± 0.53
- KESKLYLFLCFL — higher, 7.832 ± 0.048
- RDRRASYLVVASPTAGLHMV — higher, 3.34 ± 0.078
- FASRLNWVEIHTMYGGLS — higher, 0.209 ± 0.32
- RWLVRTEKSS — higher, 2.03 ± 0.1
- PACYKDYGSKSPHPPTVGLG — within error, -0.159 ± 0.76
- GPFNKMYAYEIRQTGAFWRQ — within error, -0.098 ± 0.79
- IVNMMIAANLACAMWSNCKQ — higher, 9.266 ± 0.044
- CNIRAYDIISTLMHFVLCH — within error, -1.67 ± 0.55
- GVGSCTRQLWRISRSTPLKL — higher, 2.65 ± 0.069
- KMRDGFISLVKCEYVGGFGC — within error, -0.856 ± 0.76
- YYMRRVSGLDISGRMCCKSV — within error, 0.106 ± 0.42
- WLLNLERDIFLLTLSGRMIK — within error, 0.449 ± 0.8
- DWRRWM — higher, 0.422 ± 0.5
- MSLIKTHGKLTVGDVDFPKF — within error, -0.753 ± 0.44
- MKGFELSLLVMRHSLELYRI — within error, 0.463 ± 0.65
- LEHQSRSFMNFYTRPNKPLE — within error, -0.519 ± 1
- GWRCSNPPASIKWCATLYSV — higher, 2.08 ± 0.2
- VVVSRTITLSTSYEFYIVKY — higher, 0.798 ± 0.32
- RFYRIDAKVAYQWAYQF — higher, 3.94 ± 0.12
- RWSYLYSKEVH — within error, -1.28 ± 0.64
- LLEAQSISCYRRGVYLLGQL — higher, 3.32 ± 0.067
- IGCNVESVYAGLALQMT — higher, 2.7 ± 0.18
- PAFVYHFYQYNLTICYGYLG — within error, -0.313 ± 0.5
- SCDLYDTKSESFWLPSNMGS — higher, 0.73 ± 0.44
- ALEFNT — higher, 4.14 ± 0.1
- VRSVCRGTHFSK — higher, 0.711 ± 0.42
- IFRIWRTRGRRSRFVSIEIG — within error, -0.802 ± 0.41
- NYLRYLLMDSHMRLMDRWKQ — higher, 4.87 ± 0.069
- LSNLEAEAWMRAYCIRVKIT — higher, 2.16 ± 0.1
- IIENDICHWSDICMEDLMDW — within error, 0.186 ± 0.54
- IDSWCVTHATKIGSYWML — within error, 0.12 ± 0.34
- SSLDNIWSTSD — within error, 0.337 ± 0.57
- NLCSKRRNL — within error, -0.927 ± 0.78
- YRRLRTNLLWRQSRSY — higher, 0.817 ± 0.54
- HIVEDLRVSAFTFSIKFISE — higher, 3.33 ± 0.099
- YFVPKLYRVSFKLYKWCFKW — within error, 0.277 ± 0.64
- WKKSMKIVNKYAVSLPDVGR — within error, 0.29 ± 0.51
- MIQEVLWLVSS — within error, 0.043 ± 0.49
- ALISSPANCAISWITCILVV — higher, 5.947 ± 0.034
- ITIPVNLPLHFLYSGQYHVA — within error, -0.307 ± 0.74
- CTQVMTERV — within error, -0.091 ± 0.32
- LYRFAMLLRLGARSVNMLGK — within error, -0.573 ± 1.1
- MLFSNVLLCKLCIFA — higher, 6.96 ± 0.055
- LNVMFCNVVNGFYYMDSFVC — higher, 6.838 ± 0.044
- STYSIIYV — higher, 0.831 ± 0.17
- FIFDR — within error, -0.257 ± 0.54
- LPHESFNQHGKLFMAD — within error, 0.054 ± 0.46
- LQLASNVHEHKQNGLSHRIN — higher, 0.439 ± 0.5
- RSHGSQGMKSR — higher, 1.12 ± 0.34
- YYEMFCYSCPSDRPGISNDA — higher, 8.827 ± 0.035
- SSFNTDFACSWVGYMAVVSM — within error, -0.771 ± 1.1
- SAKNMFDMYNCLDTLVVSWD — within error, -0.095 ± 0.46

With YLLNLEF the amyloid nucleation score was “inactive”.
In the case of NYGGPMVNDAFVCTLAGPV, the amyloid nucleation score is reported as “inactive”.
For YFLLTFDILLCRAFGTAGPE, the amyloid nucleation score was “inactive”.
In the case of NLILYPRHDNYQSS, the amyloid nucleation score is reported as “inactive”.
For GCKVIYIYIIHIFKCIITNW, the amyloid nucleation score was “inactive”.
In the case of CKENFKIFFDFYYGMTSVLS, the amyloid nucleation score is reported as “inactive”.
With CVWGWNRSYTYYYGDAIGHC the amyloid nucleation score was “inactive”.
In the case of CPLFYMSMISGFEGIFSLHK, the amyloid nucleation score is reported as “inactive”.
In the case of LVGVPNYVRMHYARLSLTAL, the amyloid nucleation score is reported as “inactive”.
For LTIVWLVVVYGLWGVSTFSL, the amyloid nucleation score was “inactive”.
In the case of TDRLRFIYSGGVEFFVPVLL, the amyloid nucleation score is reported as “inactive”.
For GVAELNLN, the amyloid nucleation score was “inactive”.
With NYFVNSI the amyloid nucleation score was “inactive”.
In the case of FVQSNYDSSF, the amyloid nucleation score is reported as “inactive”.
With VNTNPMVAVPGMYIYYRWFL the amyloid nucleation score was “inactive”.
For NRSHCIVVQLLRCFGYVPYG, the amyloid nucleation score was “inactive”.
With NCSSIF the amyloid nucleation score was “inactive”.
For AFAFINIWKHLYIFQGQPSL, the amyloid nucleation score was “inactive”.
